Experimental findings from patent publication US8673856B2 (Anygen Co., Ltd., priority 2006, dated 2014) are described below.

For assay [1], the target named is T1, human N-type calcium channel (Homo sapiens, UniProt Q00975).
T1 construct: expressed in transfected cells; host or cells: HEK 293 (human embryonic kidney) cells
Type of assay: cell-based.

The target in assay [2] is T1, human N-type calcium channel. The class given is cell-based. This is another data set of the same source.

No end group written: not given here.

As to “CKGTGKSCSRLMYNCCTGSCRSGKC-NH2 (CKGTGKSCSRLMYNCCTGSCRSGKC-NH2; ends and bridges not checked) [FVIA[I11L, A12M], FVIA with Ile11 and Ala12 mutated to Leu and Met]”, the “Calcium channel blocking activity” value in assay [1] is “calcium channel blocking activity similar to FVIA”. In addition, in assay [2], the “Reversibility” value was “significantly reduced reversibility”.
